Test results taken from PMC9410543, “Nonlytic cellular release of hepatitis A virus requires dual capsid recruitment of the ESCRT-associated Bro1 domain proteins HD-PTP and ALIX” (PLoS Pathogens, 2022).

Target: T1, 6XHis-tagged ALIX Bro1 protein (residues 1–392) (UniProt Q8WUM4 1-392)
T1 construct: Bro1 domain of ALIX, residues 1-392; also called recombinant ALIX Bro1; recombinant Bro1; source: E. coli, recombinant
T1 sequence (looked up): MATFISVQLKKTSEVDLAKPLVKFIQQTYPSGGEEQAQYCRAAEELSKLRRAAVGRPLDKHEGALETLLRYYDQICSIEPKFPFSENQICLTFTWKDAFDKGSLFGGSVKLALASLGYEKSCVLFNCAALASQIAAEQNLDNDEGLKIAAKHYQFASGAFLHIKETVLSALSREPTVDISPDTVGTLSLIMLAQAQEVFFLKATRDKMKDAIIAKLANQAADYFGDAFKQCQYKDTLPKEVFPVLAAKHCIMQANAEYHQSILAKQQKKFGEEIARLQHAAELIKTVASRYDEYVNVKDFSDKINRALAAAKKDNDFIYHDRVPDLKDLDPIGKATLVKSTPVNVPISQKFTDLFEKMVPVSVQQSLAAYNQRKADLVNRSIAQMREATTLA
Experiment: pull-down
Settings: both partners purified

B1: peptide representing the C-terminal 20 residues of CHMP4B (peptide, UniProt Q9H444 205-224, looked up)
peptide: KKKEEEDDDMKELENWAGSM
notes: also called CHMP4 peptide; source: synthetic peptide
binding result: binds
